{"source": "the supplement of paper PMC12636428", "data": [{"test_system": "Saccharomyces cerevisiae", "test": "transcriptional activation domain activity (GFP:mCherry ratio, weighted mean of sorted bins, harmonized to initial dataset scale) (arbitrary fluorescence ratio units); higher = stronger transcriptional activation", "conditions": "beta-estradiol 1 µM; induction time 4 h", "in_short": "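In diploid yeast carrying a GFP reporter, barcoded protein tiles fused to an estradiol-inducible synthetic transcription factor were integrated at the URA3 locus. Cultures diluted 1:5 into SC with 1 uM beta-estradiol were kept at 30 °C for 4 hours, then sorted by GFP:mCherry ratio into 8 bins before barcode sequencing. Tiles with under 50 reads were excluded. The activation activity reported here is the read-weighted mean of bin median fluorescence, averaged across barcodes and linearly rescaled to the initial dataset.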", "values": [{"sequence": "WLLSVYILGFLAFELASVLIAIRVVAIWRRARPVLVFVVVALLTQFSFIIYLS", "transcriptional activation domain activity": 23300}, {"sequence": "AAEGGDSVAKSSPAKPKQSKQSKKRPRDEDGEGAGEAPASKKQPKAKAKAAKA", "transcriptional activation domain activity": 26100}, {"sequence": "RSRSPEPARKKVDVKQEEPLASSKWAKDDDETLRKRESELKEGLLRKKVTASL", "transcriptional activation domain activity": 34800}, {"sequence": "MFLVLGWMFAHFVTVSCWPLLLWHVFFWCCLTGASEAELFIPPFIFRLPILSS", "transcriptional activation domain activity": 74400}, {"sequence": "LLQMDKAGFVKDEITDVFALVVCRNLSLFHICAYILNVYRNYIMMVLEALRAQ", "transcriptional activation domain activity": 64800}, {"sequence": "LYILLVFPILLLMMLHSLVTFLYVRAIDPLYGSVPINLHLDKIVWVATFAGAF", "transcriptional activation domain activity": 63200}, {"sequence": "VVCHFVIMMASMSYKIVICVIIGVHADLMVMDARWRSLGSWLYLLCGVIVAPA", "transcriptional activation domain activity": 67300}, {"sequence": "ASKEGEREKEGGREKEGNEGKKEGDKEEGEKKEGTDKEEEEKGGEKGKGSGEE", "transcriptional activation domain activity": 47900}, {"sequence": "MIFMLDANPSYGTLFILLPYLLSLIIPVLITSVLLSDIFFFFISYCMLCLSCC", "transcriptional activation domain activity": 52200}, {"sequence": "MLCRLCFFVFTRAVLLYLIGLFFNLFRLCLSLRFNIFVSFVFLDFCMSFPSTL", "transcriptional activation domain activity": 40200}, {"sequence": "MRGFFWQILLQTCLLPIVTCTLLPTPLMPFCALQHTPLSNLFLLLSWLYFLPY", "transcriptional activation domain activity": 48400}, {"sequence": "VLSSSLCFPLPPLSPPFLPSLCFPLPPFFPFPPFPLFPPFLPFPLFPLCFPLP", "transcriptional activation domain activity": 48300}, {"sequence": "PEVMHALLFWTSNLLLFGINAIAFSKVSWFITLIRLVVNCRQKVALWMLMVFS", "transcriptional activation domain activity": 60100}, {"sequence": "GILPPLLLAIVFGVLPFILRGLAWYECVPRYSLMSISVYRRFYLFLLIHGFLI", "transcriptional activation domain activity": 51900}, {"sequence": "MVLPYVLFNNTRQLLKVWYESLKAIVLLYQKIKIIFRYIFMYTLASLLLLFYF", "transcriptional activation domain activity": 45300}, {"sequence": "FMHLSRPEKLLVLKVFADLVDYARKSIDSCLSSPTVNWSFNNLLWNYCSMLLQ", "transcriptional activation domain activity": 67000}, {"sequence": "YVVVVLTAMQVGLATETLAHNKAFVTISYGFSIFSIFIPIVFTLLLLLVFFFV", "transcriptional activation domain activity": 19400}, {"sequence": "NEGCKIITVFNGIFGIVYSFAPMCYFCLCIRVFFFALYKRHWYYHALLSLFWL", "transcriptional activation domain activity": 70700}, {"sequence": "LIGCCVVYSLLSSFLLIFQCIPVSLAWNRWDGEHHGHCTNLVPLTWITALLNV", "transcriptional activation domain activity": 58900}, {"sequence": "PILYFLSLSLSLPPSLSLFLFLYIINQISRFWLVLFQLFFLFLFLLFPSILTS", "transcriptional activation domain activity": 62800}, {"sequence": "YEHSFEIWLACTVVFPGAGNIGFTLLEYRLGHRSLASSFFENITWIPFFFFFF", "transcriptional activation domain activity": 53900}, {"sequence": "RARAHRPKRGGRGRGRGTGTNAREGGGREEGKKKNRKKKTKTKTKTKTKTKKR", "transcriptional activation domain activity": 36600}, {"sequence": "IFLHIFLLVLLRLLFLLLSLFYFLLLPHFFYNQPSLLLRLFLNFFQLSLSILL", "transcriptional activation domain activity": 34100}, {"sequence": "NLDFFDFENSFGDLWNMDEFYGDVAWDLSSDPPLDPLFIGELYSASGQYGDLQ", "transcriptional activation domain activity": 159000}, {"sequence": "NANVKLCVDGKWDKMCLMCTGDGTSSGVWRLCERILGSARCVIESIGCWVVLC", "transcriptional activation domain activity": 60600}, {"sequence": "IRLVSSEMIRYLKKHDFKDITYYTLYISLMGFSKRYYRQGILMLKCVDIEVIY", "transcriptional activation domain activity": 74500}, {"sequence": "MEQSMGFMIHVYITVIPLGDVYEVLVFLILRSILPLPPGFLCLSLLLHDLFFI", "transcriptional activation domain activity": 62400}, {"sequence": "SSSEEEVEVEVDKKTGVKRKRVKKQKVKKDVHNLVWSVVSQKKVFTDCWLGVL", "transcriptional activation domain activity": 91900}, {"sequence": "PKPVPEQEMKDAAEKPEPEETKAAGEVKPEDAMEVDQTSKPAKSKKGKIVKRR", "transcriptional activation domain activity": 24400}, {"sequence": "ELENQSSLYYLPIHEETPFFIDLIPNGFYLETKRSADNLFGLFTDRAIENRDP", "transcriptional activation domain activity": 83800}, {"sequence": "AAGKAGKGGKGAGKAGKGAGKGKGGKRGGKGGKGAKAAGKGAAKAASQAAAAS", "transcriptional activation domain activity": 37100}, {"sequence": "WVMYVIFITVGWYAMVTGQSIVLYSRLHLVVNSIKVLRFVLILICVDVVILHV", "transcriptional activation domain activity": 67500}, {"sequence": "RKERKREKESERRERHHRRSQTHSSDEARERHRDGKTKQSRSSDRDPRKTRAR", "transcriptional activation domain activity": 30800}, {"sequence": "LFINRLMWLVRSYLTTFFCKSCPGLAKKLIKYVTIQQLPPDVSWDPHFKPRYN", "transcriptional activation domain activity": 67600}, {"sequence": "MLCFLYHLVSMCTLLHCLYLLPVLFLIFYASFFLLLACTWSSVRCLISLFFCL", "transcriptional activation domain activity": 57300}, {"sequence": "IKQQWSVFVLWSIWYRIAFTPVFWRNLGRRNLGGLIMILMNEYREVILFYWDM", "transcriptional activation domain activity": 48500}, {"sequence": "MILMLLLLLLLLLLLLVMVLLLLLVMVLLVVLLVLLWVLLLMLLWVLLGVLLG", "transcriptional activation domain activity": 16200}, {"sequence": "WRILLIVHLFGPFSLVDELLLPFKSSTSIFLFGILYIYCLFVLFLAYMILSIL", "transcriptional activation domain activity": 32600}, {"sequence": "FILSGCTFRLLFCIFGIRVWLDHQLCGNLLVVELYRKIVRSIDAYHHGKGYPT", "transcriptional activation domain activity": 61700}, {"sequence": "PAPKKAAAPAKKDALKAKKEESSSSSSDSEDEKPAPKKAAASAAKKVVAKAQK", "transcriptional activation domain activity": 21000}, {"sequence": "APVAEPVPVASTSSEVKKDEEEADEDEEDDNVASIEAKIAAARSRLSATHCLF", "transcriptional activation domain activity": 10900}, {"sequence": "PIDPETGRPKKGRPRKSVDAASAVGTSSTGEPQAKRARGRPKKNAGAVAATAV", "transcriptional activation domain activity": 51100}, {"sequence": "MSHSASTSASTSTAAGEPSAKRMRLGTRSCAECRRRKVRCIVPPGARVCEGCS", "transcriptional activation domain activity": 75900}, {"sequence": "GPRDVFGIRSAWKLPLSVAYWLLVCLARRKDFGSLRAVTVGHITWNQYMVGER", "transcriptional activation domain activity": 58600}, {"sequence": "EMVKTESVATSSTTTTKTESEGAVVKEEKMASPSPTRVKVEKVEVKRVPTISL", "transcriptional activation domain activity": 15700}, {"sequence": "KSNDSSAEKDTRSMVFCETEKVSYTGANFGEDAARDVHCKYLVGVYSKSQKQL", "transcriptional activation domain activity": 37900}, {"sequence": "MGCFFSFLFFFLFLFLFRSTVQSKVAFSLSLFFSLFKYLFFCCLVLGYFYLVL", "transcriptional activation domain activity": 70500}, {"sequence": "PKCSSLRKPTNTLQGTNHAYHEHILNTDMDLKILEDLCNISSLYEVPFGKHIN", "transcriptional activation domain activity": 115000}, {"sequence": "YKKLQWHYFLFDLCYYVNILNFVFLWIFPHSPSLFVACYCLSLGSVASAIITW", "transcriptional activation domain activity": 27700}, {"sequence": "LYYMECSFFRLIIRWIPHWLFLSVKADHVILPLPNHPVGAIIGPNLFCIFLHI", "transcriptional activation domain activity": 50900}, {"sequence": "MMRSAANMGLISQPSNLLLVVQPCPPLLLCVLFPPPLSSYCLLLSLSLLLFFF", "transcriptional activation domain activity": 38500}, {"sequence": "ELYIYSTVRYSFSDYLIPSGYNVCAFLLSCLMFNGDLMVELVLVMRSWFKRIL", "transcriptional activation domain activity": 66500}, {"sequence": "FQNISNTILDISLSHGKVPNMDQLTRELFGASDSYQDILDENNVDVSWVDKLV", "transcriptional activation domain activity": 103000}, {"sequence": "QARQSKEPAMSQKDLATKVNEKQSVINDYESGRAVPNQQVLSKLERALGVKLR", "transcriptional activation domain activity": 36800}, {"sequence": "IGGFLGCLLMGHICLIILVFLCQTLVYREVTRLFTLMDSKPTLNWYFFATANY", "transcriptional activation domain activity": 53000}, {"sequence": "SPRPSYILNAYLFISLLFDIVVLRTVWIALPSFQPVRIVLTSSFALKTIILFL", "transcriptional activation domain activity": 54000}, {"sequence": "MFLFIYFVCVCVFSLSLLWDGVSGWVLFVLDWIGLIGGMCVWAYIIIFYEFLV", "transcriptional activation domain activity": 63200}, {"sequence": "ARTSDYSIAQWRFLTKLLLVHGRWNYNRICKYIVGTFWKEIVFYLTQALYQRY", "transcriptional activation domain activity": 45400}, {"sequence": "MATLLGGFWFLVLCSIMLSALLTPLILLTGSLILLSFGSFPSLPHWLLIIIVH", "transcriptional activation domain activity": 62400}, {"sequence": "MQCSISYWRQNQVTDNFALFYIIPCFLSILLYYSSFQSYYEQRAWRLILFFYF", "transcriptional activation domain activity": 56700}, {"sequence": "LLVFGFEEHFFFFIFFFLVDGSAFCMFCDVFHFYVCCYVPHLLCLTLVIAGVS", "transcriptional activation domain activity": 73000}]}]}
